# Measured values reported in the RNAGym collection of RNA variant scans (doi:10.7554/elife.80360).
# B1: HDV Ribozyme (parent)
# chain: GGCCGGCAUGGUCCCAGCCUCCUCGCUGGCGCCGGCUGGGCAACAUUCCGAGGGGACCGUCCCCUCGGUAAUGGCGAAUGGGACCCA
# Variants of: B1
# Experiment: self-cleavage, relative activity (ratio to wild type); higher = more cleavage; co-transcriptional
row,Variant,self-cleavage
1,GGCCGGCAUGGUCCCAGCCUCCUCGCUGGCGCCGGCUGGGCAACAUUCCGAGGGAACCGUCCCCUCGGUAACGGCGAAUGGGACCCA [G55A U72C],1
2,GGCCGGCAUGGUCCCAGCCUCCUCGCUGGCGCCGGCUGGGCAACAUUCCGAGGGAACCGUCCCCUCGGUAAGGGCGAAUGGGACCCA [G55A U72G],0.415
3,GGCCGGCAUGGUCCCAGCCUCCUCGCUGGCGCCGGCUGGGCAACAUUCCGAGGUGACCGUCCCCUCGGCAAUGGCGAAUGGGACCCA [G54U U69C],1.16
4,GGCCGGCAUGGUCCCAGCCUCCUCGCUGGCGCCGGCUGGGCAACAUUCCGAGGGCACCGUCCCCUCGGUAAUCGCGAAUGGGACCCA [G55C G73C],0.479
5,GGCCGGCAUGGUCCCAGCCUCCUCGCUGGCGCCGGCUGGGCAACAUUCCGAGGGAACCGUCCCCUCGCUAAUGGCGAAUGGGACCCA [G55A G68C],0.777
6,GGCCGGCAUGGUCCCAGCCUCCUCGCUGGCGCCGGCUGGGCAACAUUCCGAGGUGACCUUCCCCUCGGUAAUGGCGAAUGGGACCCA [G54U G59U],1.14
7,GGCCGGCAUGGUCCCAGCCUCCUCGCUGGCGCCGGCUGGGCAACAUUCCGAGGUGACCAUCCCCUCGGUAAUGGCGAAUGGGACCCA [G54U G59A],1
8,GGCCGGCAUGGUCCCAGCCUCCUCGCUGGCGCCGGCUGGGCAACAUUCCGAGGGAACCGUCCCCUCGGAAAUGGCGAAUGGGACCCA [G55A U69A],0.857
9,GGCCGGCAUGGUCCCAGCCUCCUCGCUGGCGCCGGCUGGGCAACAUUCCGAGGGCACCGUCCCCUCGGUAAUGGCGAAUCGGACCCA [G55C G80C],0.388
10,GGCCGGCAUGGUCCCAGCCUCCUCGCUGGCGCCGGCUGGGCAACAUUCCGAGGUGACCGUCCCCUCGGUAAUGGCGAAUGGGACCGA [G54U C86G],1.01
11,GGCCGGCAUGGUCCCAGCCUCCUCGCUGGCGCCGGCUGGGCAACAUUCCGAGGUGACCGUCCCCUCGGUAAUGGCGAAUGGGACCUA [G54U C86U],0.882
12,GGCCGGCAUGGUCCCAGCCUCCUCGCUGGCGCCGGCUGGGCAACAUUCCGAGGUGACCGUCCCCUCGGUAAUGGCGAAUGGGACCAA [G54U C86A],0.799
13,GGCCGGCAUGGUCCCAGCCUCCUCGCUGGCGCCGGCUGGGCAACAUUCCGAGGGAACCGUCCCCUCGGUAAUGGCGAAUGUGACCCA [G55A G81U],0.34
14,GGCCGGCAUGGUCCCAGCCUCCUCGCUGGCGCCGGCUGGGCAACAUUCCGAGGGCACCGUCUCCUCGGUAAUGGCGAAUGGGACCCA [G55C C62U],0.946
15,GGCCGGCAUGGUCCCAGCCUCCUCGCUGGCGCCGGCUGGGCAACAUUCCGAGGUGACCGUCCCCUCGGUAAUGGCGAAUAGGACCCA [G54U G80A],0.257
16,GGCCGGCAUGGUCCCAGCCUCCUCGCUGGCGCCGGCUGGGCAACAUUCCGAGGUGACCGUCCCCUCGGUAAUGGCGAAUUGGACCCA [G54U G80U],0.203

row,Variant,self-cleavage
1,GGCCGGCAUGGUCCCAGCCUCCUCGCUGGCGCCGGCUGGGCAACAUUCCGAGGGAACCGUCCCCUCGGUAAUGGCGAAUGGGAUCCA [G55A C84U],0.741
2,GGCCGGCAUGGUCCCAGCCUCCUCGCUGGCGCCGGCUGGGCAACAUUCCGAGGGAACCGUCCCCUCGGUAAUGGCGAAUGGGCCCCA [G55A A83C],0.731
3,GGCCGGCAUGGUCCCAGCCUCCUCGCUGGCGCCGGCUGGGCAACAUUCCGAGGUGACCGUCCCCUCGGUAAUGGCGAAAGGGACCCA [G54U U79A],0.982
4,GGCCGGCAUGGUCCCAGCCUCCUCGCUGGCGCCGGCUGGGCAACAUUCCGAGGUGACCGUCCCCUCGGUAAUGGCGAACGGGACCCA [G54U U79C],0.513
5,GGCCGGCAUGGUCCCAGCCUCCUCGCUGGCGCCGGCUGGGCAACAUUCCGAGGGCACCGUCCCCUCGGUAAUGGCGAAUGGGAACCA [G55C C84A],1.07
6,GGCCGGCAUGGUCCCAGCCUCCUCGCUGGCGCCGGCUGGGCAACAUUCCGAGGGAACCGUCCCCUCGGUAAUGGCGAAUGGGACACA [G55A C85A],1.02
7,GGCCGGCAUGGUCCCAGCCUCCUCGCUGGCGCCGGCUGGGCAACAUUCCGAGGGAACCGUCCCCUCGGUAAUGGCGAAUGGGACUCA [G55A C85U],0.885
8,GGCCGGCAUGGUCCCAGCCUCCUCGCUGGCGCCGGCUGGGCAACAUUCCGAGGGAACCGUACCCUCGGUAAUGGCGAAUGGGACCCA [G55A C61A],0.956
9,GGCCGGCAUGGUCCCAGCCUCCUCGCUGGCGCCGGCUGGGCAACAUUCCGAGGGAACCGUGCCCUCGGUAAUGGCGAAUGGGACCCA [G55A C61G],1.06
10,GGCCGGCAUGGUCCCAGCCUCCUCGCUGGCGCCGGCUGGGCAACAUUCCGAGGGAACCGUCCCCUCGGUAAUGGCGCAUGGGACCCA [G55A A77C],0.302
11,GGCCGGCAUGGUCCCAGCCUCCUCGCUGGCGCCGGCUGGGCAACAUUCCGAGGGACCCGUCCCCUCGGUAAUGGCGAAUGGGACCCA [G55A A56C],0.895
12,GGCCGGCAUGGUCCCAGCCUCCUCGCUGGCGCCGGCUGGGCAACAUUCCGAGGGCACCGUCCCCUCGGUAAUGGCGAAUGGGACCGA [G55C C86G],1.09
13,GGCCGGCAUGGUCCCAGCCUCCUCGCUGGCGCCGGCUGGGCAACAUUCCGAGGGCACCGUCCCCUCGGUAAUGGCGAAUGGGACCUA [G55C C86U],1.12
14,GGCCGGCAUGGUCCCAGCCUCCUCGCUGGCGCCGGCUGGGCAACAUUCCGAGGGCACCGUCCCCUCGGUAAUGGCGAAGGGGACCCA [G55C U79G],0.802
15,GGCCGGCAUGGUCCCAGCCUCCUCGCUGGCGCCGGCUGGGCAACAUUCCGAGGGCACUGUCCCCUCGGUAAUGGCGAAUGGGACCCA [G55C C58U],1.07
16,GGCCGGCAUGGUCCCAGCCUCCUCGCUGGCGCCGGCUGGGCAACAUUCCGAGGGCACAGUCCCCUCGGUAAUGGCGAAUGGGACCCA [G55C C58A],1.15
